Data on three molecules can be found in doi:10.1101/2025.06.22.660944, “Structures of MmpL complexes reveal the assembly and mechanism of this family of transporters” (bioRxiv, 2025).

Test [1] concerns the target MmpL5 transporter (M. smegmatis, MSMEG_1382) (M. smegmatis) (UniProt A0QS80). Nature of the test: cryo-EM structure; particle class 3: dipartite AcpM-MmpL5 trimeric complex, 3.37 Å; same LMNG-solubilized crude membrane sample, Build and Retrieve processing.
For test [2] the target is unchanged. Kind of test: cryo-EM structure; particle class 2: tripartite AcpM-MmpL5-MmpS5 trimeric complex, 2.81 Å; same LMNG-solubilized crude membrane sample, Build and Retrieve processing.
Test [3] has as its target T1, MmpL5 transporter (M. smegmatis, MSMEG_1382) (M. smegmatis, UniProt A0QS80 1-967).
T1 construct: MmpL5, M. smegmatis, gene MSMEG_1382; 12 transmembrane helices and periplasmic subdomains PD1-PD3 (PD3 residues 499-684); Seen as a monomer (one chain per AcpM-MmpL5 unit in 2D arrays) and as a homotrimer (in AcpM-MmpL5-MmpS5 and trimeric AcpM-MmpL5) in the same sample; copies therefore left empty; also called mycobacterial membrane protein large 5; source: M. smegmatis MC2-155, co-expressed with …
T1 sequence (looked up): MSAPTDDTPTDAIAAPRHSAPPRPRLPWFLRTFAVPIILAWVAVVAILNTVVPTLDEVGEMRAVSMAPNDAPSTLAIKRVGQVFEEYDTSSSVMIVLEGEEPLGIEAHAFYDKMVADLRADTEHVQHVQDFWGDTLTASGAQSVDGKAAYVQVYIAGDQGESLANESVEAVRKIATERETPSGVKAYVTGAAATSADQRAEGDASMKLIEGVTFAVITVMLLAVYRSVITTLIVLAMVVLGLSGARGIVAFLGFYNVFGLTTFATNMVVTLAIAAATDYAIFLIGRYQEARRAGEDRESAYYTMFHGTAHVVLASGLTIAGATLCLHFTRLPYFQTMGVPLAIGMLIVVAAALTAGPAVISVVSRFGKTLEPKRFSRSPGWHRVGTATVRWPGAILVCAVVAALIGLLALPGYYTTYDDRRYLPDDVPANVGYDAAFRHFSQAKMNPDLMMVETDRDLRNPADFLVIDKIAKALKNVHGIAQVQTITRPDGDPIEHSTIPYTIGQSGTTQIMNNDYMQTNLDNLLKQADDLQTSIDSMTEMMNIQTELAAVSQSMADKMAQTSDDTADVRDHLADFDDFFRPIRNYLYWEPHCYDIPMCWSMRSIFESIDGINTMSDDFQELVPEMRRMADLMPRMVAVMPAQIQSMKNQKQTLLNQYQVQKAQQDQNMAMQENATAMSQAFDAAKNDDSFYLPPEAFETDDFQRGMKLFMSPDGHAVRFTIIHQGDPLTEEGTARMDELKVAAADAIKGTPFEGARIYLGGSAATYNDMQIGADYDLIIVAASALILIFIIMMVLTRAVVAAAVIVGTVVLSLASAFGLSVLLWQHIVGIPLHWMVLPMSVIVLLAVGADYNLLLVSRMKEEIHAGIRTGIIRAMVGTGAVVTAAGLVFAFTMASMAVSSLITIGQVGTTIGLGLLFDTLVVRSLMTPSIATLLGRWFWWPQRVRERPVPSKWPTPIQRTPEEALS
Described as above. The note with it: partners not purified.

In test [4] the target is T1, MmpL5 transporter (M. smegmatis, …). Nature of the test: cryo-EM structure; particle class 1: AcpM-MmpL5 monomeric units in 2D arrays, 3.35 Å; LMNG-solubilized crude M. smegmatis membranes enriched by sucrose cushion, Build and Retrieve processing. The note with it: partners not purified.

As to “MmpL5 transporter (M. smegmatis, MSMEG_1382) (from UniProt A0QS80 1-967) (natural protein)”, the stoichiometry N in test [1] and in test [2] was 3 throughout.

With “MmpS5 adaptor (M. smegmatis, MSMEG_1381) (natural protein)”, in test [2], the stoichiometry N (MmpS5 per MmpL5 (3:3)) was determined as 1.

B1: meromycolate extension acyl carrier protein M (AcpM) (natural protein, UniProt A0R0B3 1-99, looked up)
chain: MAATQEEIIAGLAEIIEEVTGIEPSEVTPEKSFVDDLDIDSLSMVEIAVQTEDKYGVKIPDEDLAGLRTVGDVVAYIQKLEEENPEAAAALREKFAADQ
notes: AcpM, meromycolate extension acyl carrier protein M, of the M. smegmatis host; identified from the cryo-EM map (manual building, DeepTracer) and confirmed by proteomics; Not overexpressed; came along with MmpL5 from the host cells; source: endogenous, M. smegmatis MC2-155; found in the detergent-solubilized crude membranes enriched by sucrose cushion centrifugation
Consider B1, for which the “stoichiometry N” value in test [3] is 1 AcpM per MmpL5 (3:3); in test [4], 1 AcpM per MmpL5 (1:1).

In general, stoichiometry N refers to a count of units in the complex or per binding partner.
